Laboratory results: patent US20060019335A1, “Compositions and methods to promote c-IAP autodegradation” (priority 2004, published 2006)
Entries after “also recorded” stand apart in the source; their conditions may differ.

T1: Livin α (Homo sapiens, UniProt Q96CA5)
T1 construct: expressed in transfected cells; host or cells: HeLa
T1 sequence (Q96CA5 1-298): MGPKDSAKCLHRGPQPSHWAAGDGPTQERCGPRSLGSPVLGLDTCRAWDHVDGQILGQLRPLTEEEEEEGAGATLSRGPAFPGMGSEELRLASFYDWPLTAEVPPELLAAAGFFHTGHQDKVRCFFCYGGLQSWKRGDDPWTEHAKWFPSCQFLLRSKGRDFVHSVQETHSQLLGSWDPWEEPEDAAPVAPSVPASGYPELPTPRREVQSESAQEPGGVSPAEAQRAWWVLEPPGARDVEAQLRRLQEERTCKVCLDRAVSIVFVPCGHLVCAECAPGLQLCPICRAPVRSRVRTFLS


Key:
[1] = tested on: c-IAP1; assay: Co-transfection of HeLa cells with c-IAP1 and Smac plasmids, Western blot; assay type: cell-based, human; conditions: for auto-ubiquitylation (E3 activity) of c-IAP1: co-transfection, FIG. 2A
Description: (§1) Transfection of cultured Cells—HeLa cells were grown in DMEM supplemented with 10% fetal bovine serum. Cells were seeded onto 6-well plates the day before transfection and transfected at 70% confluence by using Lipofectin combined with Plus reagent (Invitrogen) according to the manufacture's protocols. The IAP expression plasmids (3 μg each for c-IAP1, c-IAP2 and XIAP, and 250 ng each for Livin αand Livin β) together with 2.5 μg of Smac expression plasmids or pcDNA3.1(−) blank plasmid were used for single-well transfection in the absence of antibiotics. The cells were harvested 12 hours after the transfection and lysed with 0.5% CHAPS in 20 mM HEPES (pH 7.4), 10 mM KCl, 1 mM MgCl2 and 1 mM DTT. The lysates were centrifuged and the protein concentrations of the supernatants were quantified by the modified Bradford method (36).
(§2) Western Blot analysis—Proteins were resolved by SDS-PAGE and transferred to nitrocellulose filters. The filters were blocked with 5% milk and probed with antibodies as indicated. The signals were visualized with the enhanced chemiluminescence method.
(§3) To investigate the effect of Smac polypeptide on IAP protein levels, HeLa cells were transfected with the expression vectors for Smac and various IAPs. Briefly, HeLa cells were either transfected with IAP alone (Lane 2, 4 and 6), or together with Smac polypeptide (Lane 3, 5 and 7), or with Smac polypeptide alone (Lane 1). Equal amounts of cell lysates (7 μg) were immunoblotted with either the HRP-conjugated anti-FLAG antibody (shown in the top panel) in order to detect N-terminal 3×FLAG tagged IAPs, or with the anti-c-Myc antibody (bottom panel) to detect C-terminal c-Myc tagged Smac. The ubiquitin fusion technique was used to secure the production of mature Smac protein with the expected N-terminal AVPI motif (6, 37).
Because it is known that the His^588 residue in the RING finger domain is important for the IAP E3 activity (22), this residue was mutated to test whether Smac stimulated the ubiquitylation-mediated degradation of both c-IAP1 and c-IAP2. In each case, His^588 in c-IAP1 and His^574 in c-IAP2 was mutated to Ala (H588A mutant and H574A mutant, respectively) and the results are depicted in FIGS. 2A and 2B. The c-IAP1 WT or H588A mutant plasmids together with either Smac WT or Smac ΔA mutant, or with pcDNA3.1 (−) blank plasmid were co-transfected into HeLa cells (FIG. 2A). The c-IAP2 WT or H574A mutant plasmids together with either Smac WT or Smac ΔA mutant, or with pcDNA3.1 (−) blank plasmid were co-transfected into HeLa cells (FIG. 2B). As controls, HeLa cells were also transfected with either Smac WT or ΔA plasmids together with the blank p3×FLAG-CMV-7 plasmid. The transfected cells were cultivated either in the absence (see lanes 1-7 of FIGS. 2A and 2B) or in the presence (see lanes 8-14 of FIGS. 2A and 2B) of MG132. Equal amounts of soluble proteins (7 μg) from the transfected cells were immunoblotted with either the HRP-conjugated anti-FLAG antibody (see top panel of FIGS. 2A and 2B) to detect N-terminal 3×FLAG tagged IAPs, or with the anti-c-Myc antibody (see middle panel of FIGS. 2A and 2B) to detect C-terminal c-Myc tagged Smac. The anti-Actin immunoblotting results were to show equal protein loading (see bottom panel of FIGS. 2A and 2B).

[2] = molecular target: T1, Livin α; assay: Co-transfection of HeLa cells with Livin α and Smac plasmids, Western blot; assay type: cell-based; conditions: for auto-ubiquitylation of Livin: FIG. 3B
Description: as §1, §2
In the current study, Livin was also transiently expressed in HeLa cells to determine the ubiquitylation activity (see FIG. 3B). Briefly, Livin α WT or H269A mutant plasmids together with Smac WT or Smac ΔA mutant, or with pcDNA3.1(−) blank plasmid, were co-transfected into HeLa cells. As controls, HeLa cells were also transfected with either Smac WT or ΔA plasmids together with the blank p3×FLAG-CMV-7 plasmid. The transfected cells were cultivated either in the absence (see lanes 1-7 of FIG. 3B) or in the presence (see lane 8-14 of FIG. 3B) of MG132. Equal amounts of soluble proteins (7 μg) from the transfected cells were immunoblotted with either the HRP-conjugated anti-FLAG antibody (see top panel of FIG. 3B) to detect N-terminal 3×FLAG tagged IAPs, or with the anti-c-Myc antibody (see middle panel of FIG. 3B) to detect Smac. The anti-Actin immunoblotting results were to show equal protein loading (see bottom panel of FIG. 3B). […]

[3] = molecular target: XIAP (Homo sapiens, UniProt P98170); assay: Co-transfection of HeLa cells with XIAP and Smac plasmids, Western blot; assay type: cell-based; design: expressed in transfected cells; host or cells: HeLa; conditions: for XIAP ubiquitylation: co-transfection
Description: as §1, §2, §3
It is known that XIAP is ubiquitylated by its own E3 activity when expressed in HEK 293T cells and that this auto-ubiquitylation and subsequent degradation is stimulated by Reaper (26). In the current study, XIAP transiently expressed in HeLa cells was ubiquitylated as well; however, mono-ubiquitylation rather than poly-ubiquitylation of XIAP was the major product (see FIG. 3A). Briefly, XIAP WT or H467A mutant plasmids together with either Smac WT or ΔA, or with pcDNA3.1(−) blank plasmid, were co-transfected into the HeLa cells. As controls, HeLa cells were also transfected with either Smac WT or ΔA plasmids together with the blank p3×FLAG-CMV-7 plasmid. The transfected cells were cultivated either in the absence (see lanes 1-7 of FIG. 3A) or in the presence (see lanes 8-14 of FIG. 3A) of MG132. Equal amounts of soluble proteins (7 μg) from the transfected cells were immunoblotted with either the HRP-conjugated anti-FLAG antibody (see top panel of FIG. 3A) to detect N-terminal 3×FLAG tagged IAPs, or with the anti-c-Myc antibody (see middle panel of FIG. 3A) to detect Smac. The anti-Actin immunoblotting results were to show equal protein loading (see bottom panel of FIG. 3A).

[4] = mature Smac co-expressed, FIG. 1

Chain of XIAP (P98170 whole entry): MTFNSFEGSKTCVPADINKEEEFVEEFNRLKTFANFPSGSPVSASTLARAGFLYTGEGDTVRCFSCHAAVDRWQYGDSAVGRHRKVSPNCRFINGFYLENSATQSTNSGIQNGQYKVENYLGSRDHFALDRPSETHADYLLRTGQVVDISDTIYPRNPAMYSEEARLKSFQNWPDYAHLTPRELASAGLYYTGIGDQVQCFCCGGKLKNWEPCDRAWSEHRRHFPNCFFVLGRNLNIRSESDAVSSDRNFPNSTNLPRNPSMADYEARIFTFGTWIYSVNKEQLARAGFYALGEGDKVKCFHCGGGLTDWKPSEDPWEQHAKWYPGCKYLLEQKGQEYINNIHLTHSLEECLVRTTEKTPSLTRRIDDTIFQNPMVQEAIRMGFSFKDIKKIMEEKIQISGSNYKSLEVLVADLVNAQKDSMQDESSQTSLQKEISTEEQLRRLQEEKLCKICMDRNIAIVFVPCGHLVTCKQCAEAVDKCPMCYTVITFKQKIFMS

| level of XIAP ([3]; co-expression, absence of MG132) | overall amount of XIAP ([3]; co-transfected Smac, FIG. 3A) | protein level of XIAP [3, 4] | Molecule | level of wild type c-IAP1 ([1]; co-expression, absence of MG132, FIG. 2A) | levels of non-/mono-/di-ubiquitylated and highly ubiquitylated c-IAP1 forms ([1]; co-expression, presence of MG132, FIG. 2A) | level of E3-negative H588A c-IAP1 ([1]; either in the absence or in the presence of MG132) | protein level of c-IAP1 [1, 4] | auto-ubiquitylation of Livin [2] | degradation of Livin α ([2]; absence of MG132, FIG. 3B) | XIAP ubiquitylation ([3]; FIG. 3A) | auto-ubiquitylation (E3 activity) of c-IAP1 [1] | auto-ubiquitylation (E3 activity) of c-IAP1 ([1]; listed as Smac mutant lacking the initial Ala residue) |
| --- | --- | --- | --- | --- | --- | --- | --- | --- | --- | --- | --- | --- |
| negligible effect | not significantly affected | unaffected | Smac: wild type (WT) Smac polypeptide from Homo sapiens, SEQ ID NO 1, 239 amino acids; second mitochondria-derived activator of caspase (protein, listed as Homo sapiens) MAALKSWLSRSVTSFFRYRQCLCVPVVANFKKRCFSELIRPWHKTVTIGFGVTLCAVPIAQKSEPHSLSSEALMRRAVSLVTDSTSTFLSQTTYALIEAITEYTKAVYTLTSLYRQYTSLLGKMNSEEEDEVWQVIIGARAEMTSKHQEYLKLETTWMTAVGLSEMAAEAAYQTGADQASITARNHIQLVKLQVEEVHQLSRKAETKLAEAQIEELRQKTQEEGEERAESEQEAYLRED | nearly complete disappearance of c-IAP1; also recorded: nearly non-detectable level | reduction in the level of non-ubiquitylated and mono-/di-ubiquitylated wild type c-IAP1 and a concomitant increase in the level of highly ubiquitylated c-IAP1 forms | did not cause a drastic change | significantly decreased | effectively stimulates auto-ubiquitylation of Livin α | slightly promoted the degradation of Livin α | still promoted XIAP ubiquitylation | – | – |
| – | – | – | Smac ΔA: Smac mutant lacking the initial Ala (Ala deletion mutant polypeptide), used as negative control (protein, UniProt Q9NR28 22-239, looked up, variant A1*) Diablo IAP-binding …: LCVPVVANFKKRCFSELIRPWHKTVTIGFGVTLCVPIAQKSEPHSLSSEALMRRAVSLVTDSTSTFLSQTTYALIEAITEYTKAVYTLTSLYRQYTSLLGKMNSEEEDEVWQVIIGARAEMTSKHQEYLKLETTWMTAVGLSEMAAEAAYQTGADQASITARNHIQLVKLQVEEVHQLSRKAETKLAEAQIEELRQKTQEEGEERAESEQEAYLRED | – | – | – | – | stimulated the auto-ubiquitylation of XIAP and Livin | – | stimulated the auto-ubiquitylation of XIAP and Livin | did not enhance the auto-ubiquitylation of c-IAP1 | did not promote the E3 activity |
